Measurements: patent US20240252614A1 (Pfizer, published 2024)

Experiments:
hMPV132 = biological target: T1, hMPV132 (hMPV B, UniProt Q6WB98 19-102); assay: BLI, 63C stress
T1 construct: L141C-A161C, S149T, G239A, T411C-Q434C, A459P
Protocol: (§1) Conformation integrity of hMPV B F protein mutants were evaluated by a thermal stress experiment. Crude cell culture supernatants were normalized based on the results of the titer quantitation and then incubated for 1 hour at room temperature and two higher temperatures. For the testing of hMPV B single mutants, the two temperatures were 53° C. and 56° C. After the incubation, the protein mutants were probed with prefusion specific monoclonal antibody hMPV-2 by OCTET HTX. Anti-Human IgG Fc Capture (AHC) biosensors were first equilibrated in PB before being dipped into more PB for to establish the initial baseline. Biosensors were incubated with hMPV-2 before being equilibrated in PB to establish the experimental baseline. The mAb-bound biosensors were then dipped into the thermal stresses cell culture supernatants for 5 minutes.

hMPV121 = biological target: T2, hMPV121 (hMPV B, UniProt Q6WB98 19-102); assay: BLI, 63C stress
T2 construct: L141C-A161C, T411C-Q434C
Protocol: as §1

hMPV136 = biological target: T3, hMPV136 (hMPV B, UniProt Q6WB98 19-102); assay: BLI, 63C stress
T3 construct: A140C-S149C, A459P
Protocol: as §1

hMPV127 = biological target: T4, hMPV127 (hMPV B, UniProt Q6WB98 19-102); assay: BLI, 63C stress
T4 construct: A140C-S149C, G239A, T411C-Q434C, A459P
Protocol: as §1

hMPV137 = biological target: T5, hMPV137 (hMPV B, UniProt Q6WB98 19-102); assay: BLI, 63C stress
T5 construct: T49I, A140C-S149C
Protocol: as §1

hMPV125 = biological target: T6, hMPV125 (hMPV B, UniProt Q6WB98 19-102); assay: BLI, 63C stress
T6 construct: L141C-A161C, G239A, T411C-Q434C
Protocol: as §1

hMPV128 = biological target: T7, hMPV128 (hMPV B, UniProt Q6WB98 19-102); assay: BLI, 63C stress
T7 construct: T49I, A140C-S149C, G239A, T411C-Q434C, A459P
Protocol: as §1

hMPV130 = biological target: T8, hMPV130 (hMPV B, UniProt Q6WB98 19-102); assay: BLI, 63C stress
T8 construct: L141C-A161C, G239A, T411C-Q434C, A459P
Protocol: as §1

hMPV124 = biological target: T9, hMPV124 (hMPV B, UniProt Q6WB98 19-102); assay: BLI, 63C stress
T9 construct: L141C-A161C, T411C-Q434C, A459P
Protocol: as §1

hMPV119 = biological target: T10, hMPV119 (hMPV B, UniProt Q6WB98 19-102); assay: BLI, 63C stress
T10 construct: T49I, T150C-R156C, A459P
Protocol: as §1

hMPV140 = biological target: T11, hMPV140 (hMPV B, UniProt Q6WB98 19-102); assay: BLI, 63C stress
T11 construct: T49I, L141C-A161C, T411C-Q434C, A459P
Protocol: as §1

hMPV142 = biological target: T12, hMPV142 (hMPV B, UniProt Q6WB98 19-102); assay: BLI, 63C stress
T12 construct: L141C-A161C, S149T, A459P
Protocol: as §1

hMPV118 = biological target: T13, hMPV118 (hMPV B, UniProt Q6WB98 19-102); assay: BLI, 63C stress
T13 construct: T49I, T150C-R156C
Protocol: as §1

hMPV090 = biological target: T14, hMPV090 (hMPV A, UniProt Q6WB98 19-102); assay: BLI, 58C stress
T14 construct: T411C-Q434C, L141C-A161C, A459P, G239A, T49I, S149T, T365I
Protocol: (§2) The OCTET HTX (Sartorius, Gottingen, Germany) instrument was used to evaluate the expression and conformational integrity for each mutant. All measurements were conducted at 30° C. temperature in 96-well black plates (Corning, Corning, NY) with a final volume of 240 μL per well at a constant agitation rate of 1000 RPM.
(§3) Conformation integrity of hMPV A F protein mutants were evaluated by thermal stress experiments. Crude cell culture supernatants were normalized based on the results of the titer quantitation and then incubated for 1 hour at room temperature and two higher temperatures. […] Anti-Human IgG Fc Capture (AHC) biosensors were first equilibrated in PB before being dipped into more PB to establish the initial baseline. […] The mAb-bound biosensors were then dipped into the thermal stressed cell culture supernatants for 5 minutes. The kinetics analysis was done by OCTET data analysis software (version 12.0, Sartorius) based on curve fitting of the entire associate step.

hMPV A F WT Control = hMPV A F WT Control (hMPV A, UniProt Q6WB98 19-102); assay: BLI, 58C stress
Protocol: as §2, §3

hMPV078 = biological target: T15, hMPV078 (hMPV A, UniProt Q6WB98 19-102); assay: BLI, 58C stress
T15 construct: T411C-Q434C, A140C-S149C
Protocol: as §2, §3

hMPV083 = biological target: T16, hMPV083 (hMPV A, UniProt Q6WB98 19-102); assay: BLI, 58C stress
T16 construct: T411C-Q434C, A140C-S149C, A459P, G239A, T49I, T365I
Protocol: as §2, §3

hMPV087 = biological target: T17, hMPV087 (hMPV A, UniProt Q6WB98 19-102); assay: BLI, 58C stress
T17 construct: T411C-Q434C, L141C-A161C, T365I
Protocol: as §2, §3

hMPV085 = biological target: T18, hMPV085 (hMPV A, UniProt Q6WB98 19-102); assay: BLI, 58C stress
T18 construct: T411C-Q434C, L141C-A161C, A459P
Protocol: as §2, §3

hMPV097 = biological target: T19, hMPV097 (hMPV A, UniProt Q6WB98 19-102); assay: BLI, 58C stress
T19 construct: T411C-Q434C, E146C-T160C, A459P, G239A, T49I, S149T, T365I
Protocol: as §2, §3

hMPV086 = biological target: T20, hMPV086 (hMPV A, UniProt Q6WB98 19-102); assay: BLI, 58C stress
T20 construct: T411C-Q434C, L141C-A161C, T49I; also called hMP0086
Protocol: as §2, §3

hMPV084 = biological target: T21, hMPV084 (hMPV A, UniProt Q6WB98 19-102); assay: BLI, 58C stress
T21 construct: T411C-Q434C, L141C-A161C
Protocol: as §2, §3

hMPV081 = biological target: T22, hMPV081 (hMPV A, UniProt Q6WB98 19-102); assay: BLI, 58C stress
T22 construct: T411C-Q434C, A140C-S149C, T365I
Protocol: as §2, §3

hMPV088 = biological target: T23, hMPV088 (hMPV A, UniProt Q6WB98 19-102); assay: BLI, 58C stress
T23 construct: T411C-Q434C, L141C-A161C, G239A
Protocol: as §2, §3

hMPV079 = biological target: T24, hMPV079 (hMPV A, UniProt Q6WB98 19-102); assay: BLI, 58C stress
T24 construct: T411C-Q434C, A140C-S149C, A459P
Protocol: as §2, §3

hMPV082 = biological target: T25, hMPV082 (hMPV A, UniProt Q6WB98 19-102); assay: BLI, 58C stress
T25 construct: T411C-Q434C, A140C-S149C, G239A
Protocol: as §2, §3

PIV1070 = biological target: T26, PIV1070 (PIV1); assay: BLI, 56C stress;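 also: binding of thermally stressed PIV1 F mutant supernatant to mAb on AHC biosensors for 5 min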
T26 construct: F113G, F114S, A466I, S473I, G134A
Protocol: as §2
(§4) Conformation integrity of PIV1 F protein mutants were evaluated by a thermal stress experiment. Crude cell culture supernatants were normalized based on the results of the titer quantitation and then incubated for 1 hour at room temperature and two higher temperatures. For the initial testing of PIV1 mutants, the two temperatures were 50° C. and 53° C. […] Anti-Human IgG Fc Capture (AHC) biosensors were first equilibrated in PB for before being dipped into more PB to establish the initial baseline. […] The mAb-bound biosensors were then dipped into the thermal stresses cell culture supernatants for 5 minutes.

PIV1069 = biological target: T27, PIV1069 (PIV1); assay: BLI, 56C stress;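 also: binding of thermally stressed PIV1 F mutant supernatant to mAb on AHC biosensors for 5 min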
T27 construct: F113G, F114S, A466L, S473L, G134A
Protocol: as §2, §4

[1] = biological target: T28, PIV1 F literature prefusion comparison (PIV1); assay: BLI, 56C stress;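 also: binding of thermally stressed PIV1 F mutant supernatant to mAb on AHC biosensors for 5 min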
T28 construct: F113G, F114S, A466I, S473I (Stewart-Jones et al. 2018)
Protocol: as §2, §4

B1: hMPV-2 mAb (antibody, V domains shown)
VH: QVQLQQSGAEVKKPGASVKVSCKASGYTFTSYGISWVRQAPGQGLEWMGWISGYNGNTNYAQTFQGTFTMTTDTSTSTAYMELRRLRSGDTAVYYCARDRYYASGSYNGMDVWGQGTTVTVSS
VL: QSALTQPPSASGAPGQRVTVSCSGSSSNVGSSSVYWYQQLPGTAPKLLIYRNNQRPSGVPDRFSGSKSGTSASLAISGLRSEDEADYYCAAWDDSLSGWVFGGGTKLTVLG
notes: human IgG1
For B1, the “Response Shift” value (hMPV132) was 0.606 nm, the “Response Shift” value (hMPV121) was 0.078 nm and the “Response Shift” value (hMPV136) was -0.027 nm. The “Response Shift” value (hMPV127) was 0.696 nm, the “Response Shift” value (hMPV137) was 0.238 nm and the “Response Shift” value (hMPV125) was 0.233 nm. For the same binder, the “Response Shift” value (hMPV128) was 0.746 nm, the “Response Shift” value (hMPV130) was 0.079 nm and the “Response Shift” value (hMPV124) was 0.065 nm. For the same binder, the “Response Shift” value (hMPV119) was 0.017 nm, the “Response Shift” value (hMPV140) was 0.747 nm and the “Response Shift” value (hMPV142) was 0.054 nm. The “Response Shift” value (hMPV118) was 0.028 nm, the “Response Shift” value (hMPV090) was 0.77 nm and the “Response Shift” value (hMPV A F WT Control) was 0.015 nm. For the same binder, the “Response Shift” value (hMPV078) was 0.769 nm, the “Response Shift” value (hMPV083) was 0.822 nm and the “Response Shift” value (hMPV087) was 0.763 nm. For the same binder, the “Response Shift” value (hMPV085) was 0.076 nm, the “Response Shift” value (hMPV097) was 0.905 nm and the “Response Shift” value (hMPV086) was 0.735 nm. The “Response Shift” value (hMPV084) was 0.183 nm, the “Response Shift” value (hMPV081) was 0.804 nm and the “Response Shift” value (hMPV088) was 0.492 nm. The “Response Shift” value (hMPV079) was 0.736 nm and the “Response Shift” value (hMPV082) was 0.804 nm.

B2: PIV1-8 mAb (antibody, V domains shown)
VH: QVQLVQSGAEVKKPGSSVKVSCEASGGTFSNYVISWVRQAPGQGLEWMGGIIPVFATAKYAQKFQGRVTIIADQSTNTAYLELSSLRSDDTAVYFCASVDSGGTWWDAFAIWGQGTMVTVSS
VL: QAVVTQPRSVSGSPGQAVTISCTGTSSDVGGYNYVSWYQHHPGKAPKLIIYDVTKRPSGVPDRFSGSKSGNTASLTISGLQTEYEADYYCCSYAGSYTLVFGGGTKLTVLG
notes: human IgG1; also called hPIV1-8 mAb; hPIV1-8
B2 was tested, and the “Response Shift” value (PIV1070) was 0.859 nm, the “Response Shift” value (PIV1069) was 0.819 nm and the “Response Shift” value [1] was 0.458 nm.
